The labels stand for the following.
B1: OSE-18D5 (antibody, from another filing, V domains shown)
VH: QVQLQQPGAELVRPGSSVKLSCKASGYTFTSYWVHWVKQRPIQGLEWIGNIDPSDSDTHYNQKFKDKASLTVDKSSSTAYMQLSSLTFEDSAVYYCVRGGTGTMAWFAYWGQGTLVTVSA
VL: DVVMTQTPLSLPVSLGDQASISCRSSQSLVHSYGNTYLYWYLQKPGQSPKLLIYRVSNRFSGVPDRFSGSGSGTDFTLKISRVEAEDLGVYFCFQGTHVPYTFGSGTKLEIK
B2: SIRP5 (antibody, V domains shown)
VH: QVQLQQSAAELARPGASVKMSCKASGYTFTSYTMHWVKQRPGQGLEWIGYINPTIGYTEYNQKFKDKTTLTADKSSSTAYMQLSSLTSEDSAVYYCVRLVITSVLGRAMDYWGQGTSVTVSS
VL: QIVLTQSPALMSASPGEKVTMTCSASSSVSYMYWFQQKPRSSPKPWIYLTSNLASGVPARFSGSGSGTSYSLTISSMEAEDAATYYCQQWSGNPFTFGSGTKLEIK
B3: SIRP3 (antibody, mouse IgG1, kappa, V domains shown)
VH: EVQLQQSGPEVVKPGASVKMSCKASGYTFTSYVMHWVKQKPGQGLEWIGYINPYNDGPKYNEKFKGKATLTSDKSSSTAYMELSSLTSEDSAVYFCARWDYFNSASGFAFWGQGTLVTVSA
VL: EIVLTQSPTTMAASPGEKITIICSASSIIGSDFLHWYQQRPGFSPKFLIYRTSILASGVPTRFTGSGSGTSYSLTIGTMEAEDVATYYCQQGSGLPLTFGSGTKLEMKR
notes: Hybridoma-derived mouse mAb
B4: SIRP22 (antibody, human IgG4 S228P, kappa, V domains shown)
VH: QVQLVQSGAEVKKPGASVKVSCKASGYSFTDYFLNWVRQAPGQGLEWMGRINPYNGDSFINQNFRDRVTMTVDTSTSTVYMELSSLRSEDTAVYYCARGGYDGYFIAYFDYWGAGTTVTVSS
VL: DIQMTQSPSSLSASVGDRVTITCKASQDINSHLSWYQQKPGKAPKLLIYRANRLATGVPSRFSGSGSGTDFTFTISSLQPEDIATYYCQQYDEFPYTFGGGTKLEIKR
B5: SIRP19 (antibody, human IgG4 S228P, kappa, V domains shown)
VH: EVQLVQSGAEVKKPGESLKISCKGSGYSFTDYFLNWVRQMPGKGLEWMGRINPYNGDSFINQNFRDQVTISADKSISTAYLQWSSLKASDTAMYYCARGGYDGYFIAYFDYWGAGTTVTVSS
VL: B4 VL
B6: SIRP8 (antibody, V domains shown)
VH: EVQLQESGGGLVKPGGSLKLSCAASGFTLSTYTMSWVRQTPEKRLEWVAIITSGDTYTYYPDSVKGRFTISRDNAKNTLYLQMSSLKSEDTGMYYCTRDRPLFHWGQGTTLTVST
VL: QIVLTQSPAIMSASPGEKVTMTCSASSSVSYMYWYQQKPGSSPRLLIYDTSNLASGVPVRFSGSGSGTSYSLTISRMEAEDAATYYCQQWSSFPWTFGGGTKLEIK
B7: SIRP7 (antibody, V domains shown)
VH: EVQLQQSGPELVKPGASVKMSCRASGYTFSTYVMHWIKHRPGQGLEWIGYINPNNDGPNYNEKFKGKATLTSDISSSTAYMELSSLTSEDSAVYFCSRWDSYNSAAGFAYWGHGTLVTVSA
VL: EIVLTQSPTTMAASPGEKITIICSASSSISSNFLHWYQQKPGFSPRFLIYRTSILASGVPTRFSGSGSGTSYSLTIDTMEAEDVATYYCQQGSGLPLTFGSGTKLEIK
B8: SIRP2 (antibody, mouse IgG1, kappa, V domains shown)
VH: EVKLVESGGGLVQPGGSLKLSCAASGFSFSGCTMSWIRQTPERRLEWVAYISNGGDITYYPDTVKGRFTISRDNAKNSLYLQMSSLKSEDTAMYYCARLDGYYYAMDFWGQGTSVTVSS
VL: DILLTQSPAILSVSPGERVSFSCRASQSIGTSIHWYQQRTNGSPRLLIKYGSESISGIPSRFSGSGSGTDFTLSINSVESEDIADYYCQQSNTWPLTFGDGTKLELKR
notes: Hybridoma-derived mouse mAb

T3 sequence (Q9P1W8 29-387): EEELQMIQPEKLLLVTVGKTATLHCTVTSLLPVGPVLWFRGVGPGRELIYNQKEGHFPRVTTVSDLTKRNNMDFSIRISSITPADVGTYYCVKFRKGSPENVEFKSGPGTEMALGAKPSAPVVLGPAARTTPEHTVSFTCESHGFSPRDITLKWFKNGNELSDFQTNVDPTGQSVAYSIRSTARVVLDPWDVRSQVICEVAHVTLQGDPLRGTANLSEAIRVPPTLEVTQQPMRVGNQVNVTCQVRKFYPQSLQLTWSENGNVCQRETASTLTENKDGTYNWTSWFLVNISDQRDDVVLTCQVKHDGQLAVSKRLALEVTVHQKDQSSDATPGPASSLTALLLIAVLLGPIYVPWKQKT

The first experiment deals with T1, human SIRPα expressed on cells (human, UniProt P78324 31-504).
T1 construct: whole, on cells; Endogenous SIRPα of THP-1 cells and of donor-derived macrophages and dendritic cells; also called SIRPα expressing THP-1 cells; cell-expressed SIRPα on dendritic cells and/or macrophages
T1 sequence (P78324 31-504): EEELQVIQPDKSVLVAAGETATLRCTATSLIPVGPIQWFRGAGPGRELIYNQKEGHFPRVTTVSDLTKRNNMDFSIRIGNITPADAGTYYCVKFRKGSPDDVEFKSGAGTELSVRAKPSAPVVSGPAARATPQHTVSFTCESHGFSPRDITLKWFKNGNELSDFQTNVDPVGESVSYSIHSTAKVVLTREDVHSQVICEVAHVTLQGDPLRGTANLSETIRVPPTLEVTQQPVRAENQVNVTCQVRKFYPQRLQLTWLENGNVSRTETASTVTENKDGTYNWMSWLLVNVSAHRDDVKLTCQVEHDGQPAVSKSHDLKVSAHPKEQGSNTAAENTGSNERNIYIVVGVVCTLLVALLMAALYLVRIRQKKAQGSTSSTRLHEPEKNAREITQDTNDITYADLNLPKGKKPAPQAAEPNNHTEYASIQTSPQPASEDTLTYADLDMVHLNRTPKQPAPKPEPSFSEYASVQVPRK
As to the kind of experiment: flow cytometry on human monocyte-derived macrophages; apparent Kd. The protocol: (§1) Human CD14⁺ monocytes, isolated from peripheral blood mononuclear cells (Astarte Biologics) were differentiated in vitro for seven days into macrophages or dendritic cells. For macrophage differentiation, monocytes were incubated in AIM-V media (Life Technologies) supplemented with 50 ng/ml M-CSF (Biolegend) for seven days. For dendritic cell differentiation, monocytes were incubated in AIM-V media (Life Technologies) in the presence of 10% human AB serum (Valley Biomedical), 200 ng/ml GM-CSF (Biolegend) and 50 ng/ml IL-4 (Biolegend). The cells were incubated for 1 h at 37° C., 5% CO₂ with serial dilutions of SIRP mAbs in binding buffer containing 1 mM EDTA (Sigma Aldrich) and 1% FBS (Biowest) in PBS (Corning). The cells were then washed and stained for 45 min under the same conditions with donkey anti-mouse IgG fluorescein isothiocyanate (FITC)-linked secondary antibody (Jackson ImmunoResearch Laboratories). The cells were subsequently stained with anti-CD14 or anti-CD11c conjugated to Alexa Fluor 647 fluorophore (Life Technologies and Biolegend, respectively) for 30 min on ice, washed and analyzed by flow cytometry (Attune, Life Technologies). Binding was assessed as the median FITC fluorescence intensity of CD14⁺ or CD11c⁺ cells, subtracted from cells stained with the secondary antibody only.
For orientation: In flow cytometry, cells or beads pass a laser one at a time.
With B1, the Kd was 0.0373 nM.

In another experiment the target is T2, Fc tagged human SIRPα (ACRO # SIG-H5251, genotype variant 1) (human, UniProt P78324 31-370, limits assumed).
T2 construct: Bought protein; also called Fc tagged human SIRP alpha; recombinant human SIRPα; not shown: Fc tag
T2 sequence (P78324 31-370 limits assumed, change not shown, form in doubt): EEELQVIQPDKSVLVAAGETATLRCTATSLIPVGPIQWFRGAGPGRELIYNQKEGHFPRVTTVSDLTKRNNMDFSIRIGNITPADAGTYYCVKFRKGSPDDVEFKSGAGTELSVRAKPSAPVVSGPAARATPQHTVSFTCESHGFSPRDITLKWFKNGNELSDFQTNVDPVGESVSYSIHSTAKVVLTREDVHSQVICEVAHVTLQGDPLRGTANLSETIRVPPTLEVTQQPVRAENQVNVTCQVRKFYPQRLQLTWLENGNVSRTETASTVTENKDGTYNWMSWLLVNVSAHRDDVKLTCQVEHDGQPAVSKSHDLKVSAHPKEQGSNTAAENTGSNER
The experiment can be described thus: ELISA, plate-coated Fc tagged human SIRPα; apparent Kd. How it is done:
The binding of anti-SIRP monoclonal antibodies (mAbs) of the present disclosure to SIRP alpha (SIRPα) was determined by solid phase ELISA using an Fc tagged human SIRP alpha. Binding by soluble anti-SIRP antibodies was measured in vitro.
Fc tagged human SIRPα (ACRO # SIG-H5251, genotype variant 1) is adsorbed to high-binding microtiter plates at a concentration of 1 μg/ml diluted in phosphate buffered saline (PBS) overnight at 4° C. The coating solution is removed, the wells are washed and then blocked with 75% casein in PBS containing 0.5% Tween 20 (PBST) for 60 minutes at room temperature while shaking. Blocking solution is removed, the wells are washed and incubated for 60 minutes at room temperature while shaking with either murine or human anti-SIRP mAbs diluted in PBST at a starting concentration of 30 μg/ml and reducing the concentration in 3-fold serial dilutions. Wells are washed three times with PBST and incubated for 60 minutes at room temperature while shaking with an HRP-labeled donkey anti-mouse or anti-human secondary antibody (Jackson ImmunoResearch Laboratories) diluted 1:10,000 in PBST. The wells are washed and then incubated with peroxidase substrate and the absorbance at 450 nm measured. The apparent affinities were calculated using a non-linear fit model (GraphPad Prism).
On to B2, for which the Kd came out at 0.065 nM.

For the molecule B3, the Kd stood at 0.289 nM.

Consider B4, for which the Kd was greater than 11 nM.

Take B5: the Kd was greater than 19 nM.

As to B6, the Kd was 0.057 nM.

With B7, the Kd turned out to be 0.197 nM.

Regarding B8, the Kd came to 0.182 nM.

The next experiment has as its target T3, human SIRPγ expressed on cells (human, UniProt Q9P1W8 29-387).
T3 construct: Endogenous SIRPγ on Jurkat T-ALL cells and on human CD3+ T cells; also called SIRPγ expressing Jurkat cells; Human T Cells Expressing SIRPγ
The experiment can be described thus: flow cytometry on naive human CD3 T cells expressing SIRPγ. The protocol: Human CD3 T cells, isolated from peripheral blood mononuclear cells (Astarte Biologics) were incubated in 96-well V-bottom plates at 2.5 \ 10⁵ cells/well for 1 h at 37° C., 5% CO₂ with serial dilutions of SIRP mAbs in binding buffer containing 1 mM EDTA (Sigma Aldrich), 1% FBS (Biowest) in PBS (Corning). The cells were then washed and stained for 45 min under the same conditions with donkey anti-mouse IgG fluorescein isothiocyanate (FITC)-linked secondary antibody (Jackson ImmunoResearch Laboratories). The cells were subsequently stained with anti-CD3 conjugated to 3-carboxy-6,8-difluoro-7-hydroxycoumarin (Pacific Blue) fluorophore (BioLegend) for 30 min on ice, washed and analyzed by flow cytometry (Attune, Life Technologies). Binding was assessed as the median FITC fluorescence intensity of CD3⁺ cells, subtracted from CD3⁺ cells stained with the secondary antibody only. All SIRP antibodies were generated in-house except for LSB2.20 (BioLegend). For activated T cells, prior to the binding assay CD3 T cells were activated for 72 h in a 96-well flat-bottom plate coated with 10 μg/ml anti-CD3 (clone UCHT1; BioLegend), at 1×10⁵ cells/well in the presence of 0.5 μg/ml anti-CD28 (clone CD28.2; BioLegend).
The molecule B1 came in with a Kd of 8.41 nM.

Turning to B3, the Kd is 0.0807 nM.

Take B7: the Kd amounted to 0.0839 nM.

For the next experiment, the target named is T4, Fc tagged human SIRPγ (ACRO # SIG-H5253) (human, UniProt Q9P1W8 29-360).
T4 construct: Bought protein; it includes the transmembrane and cytoplasmic part, which a soluble Fc fusion would not carry; also called Fc tagged human SIRP gamma; recombinant human SIRP gamma; not shown: Fc tag
T4 sequence (Q9P1W8 29-360 limits assumed): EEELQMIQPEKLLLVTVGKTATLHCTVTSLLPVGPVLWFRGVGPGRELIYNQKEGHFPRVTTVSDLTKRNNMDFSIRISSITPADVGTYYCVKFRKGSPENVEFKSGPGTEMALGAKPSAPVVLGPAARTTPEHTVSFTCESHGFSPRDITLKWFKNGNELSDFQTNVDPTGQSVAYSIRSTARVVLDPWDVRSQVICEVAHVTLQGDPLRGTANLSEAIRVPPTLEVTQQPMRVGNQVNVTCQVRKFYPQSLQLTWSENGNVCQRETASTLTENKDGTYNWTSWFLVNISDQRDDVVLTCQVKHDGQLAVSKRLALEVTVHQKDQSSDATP
The experiment can be described thus: blocking ELISA: mAb with human SIRPγ (ACRO # SIG-H5253) on plate-coated HIS tagged human CD47. How it is done: HIS tagged human CD47 (ACRO # CD7-H5227) is adsorbed to high-binding microtiter plates at a concentration of 2 μg/ml diluted in PBS overnight at 4° C. The coating solution is removed, the wells are washed and then blocked with 75% casein in PBS containing 0.5% Tween 20 (PBST) for 60 minutes at room temperature while shaking. Blocking solution is removed, the wells are washed and incubated for 60 minutes at room temperature while shaking with anti-SIRP mAbs diluted in PBST at a starting concentration of 30 μg/ml and reducing the concentration in 3 fold serial dilutions and 0.5 μg/ml of human SIRPγ (ACRO # SIG-H5253). Wells are washed three times with PBST and incubated for 60 minutes at room temperature while shaking with an HRP labeled donkey anti-mouse or anti-human secondary antibody (Jackson ImmunoResearch Laboratories) diluted 1:20,000 in PBST. The wells are washed and then incubated with peroxidase substrate and the absorbance at 450 nm determined. The IC₅₀ was calculated using a non-linear fit model (GraphPad Prism).
(In general: ELISA stands for enzyme-linked immunosorbent assay.)
By IC50 is commonly meant the concentration that gives 50% inhibition. Higher therefore signals weaker potency. As for B2, the midpoint of inhibition, the IC50, lay at 0.163 nM.

The molecule B3 gave an IC50 of 0.96 nM.

B7: the midpoint of inhibition, the IC50, lay at 0.63 nM.

In the case of B8, the IC50 amounted to 3.5 nM.

A further experiment concerns the target T4, Fc tagged human SIRPγ (ACRO # SIG-H5253). As to the kind of experiment: ELISA, plate-coated Fc tagged human SIRPγ. How it is done:
(§2) Fc tagged human SIRPγ (ACRO # SIG-H5253) is adsorbed to high-binding microtiter plates at a concentration of 1 μg/ml in phosphate buffered saline (PBS) overnight at 4° C. The coating solution is removed, the wells are washed and then blocked with 75% casein in PBS containing 0.5% Tween 20 (PBST) for 60 minutes at room temperature while shaking. Blocking solution is removed, the wells are washed and incubated for 60 minutes at room temperature while shaking with anti-SIRP mAbs diluted in PBST at a starting concentration of 30 μg/ml and reducing the concentration in 3-fold serial dilutions. Wells are washed three times with PBST and incubated for 60 minutes at room temperature while shaking with an HRP labeled donkey anti-mouse or anti-human secondary antibody (Jackson ImmonResearch Laboratories) diluted 1:10,000 in PBST. The wells are washed and then incubated with peroxidase substrate and the absorbance at 450 nm determined. The apparent affinities were calculated using a non-linear fit model (GraphPad Prism).
Take B4: the binding result is reported as “no binding (tested: 30 µg/ml)”.

With B5, the binding result is reported as “no binding (tested: 30 µg/ml)”.

As to B6, the binding result was “no binding (tested: 30 µg/ml)”.

In another experiment the target is HIS tagged human SIRPα (ACRO # SIG-H5225) (human) (UniProt P78324). As to the kind of experiment: blocking ELISA: mAb on plate-coated HIS tagged human SIRPα, then Fc tagged human CD47.
Chain of HIS tagged human SIRPα (ACRO # SIG-H5225) (human) (P78324 31-370): as the sequence (P78324 31-370 limits assumed, change not shown, form in doubt) above
As for B3, the IC50 was 2.7 nM.

In turn, B7 returned an IC50 of 1.1 nM.

The molecule B8 gave an IC50 of 3 nM.

The target in the next experiment is T4, Fc tagged human SIRPγ (ACRO # SIG-H5253). The experiment can be described thus: ELISA, plate-coated Fc tagged human SIRPγ; apparent Kd. The protocol: The binding of anti-SIRP antibodies of the present disclosure to SIRP gamma (SIRPγ) was determined by ELISA using an Fc tagged human SIRPγ. Binding by soluble anti-SIRP antibodies was measured in vitro.
as §2
Consider B2, for which the Kd was 0.126 nM.

Take B3: the Kd is 0.17 nM.

As for B7, the Kd came out at 0.099 nM.

On to B8, for which the Kd was found to be 0.734 nM.

A further experiment has as its target T1, human SIRPα expressed on cells. The experiment can be described thus: flow cytometry on human monocyte-derived dendritic cells; apparent Kd. The protocol: as §1
As to B2, the Kd is 0.77 nM.

Take B1: the Kd came to 0.0412 nM.

In the case of B3, the Kd turned out to be 0.00347 nM.

The values are drawn from patent US20200297842A1 (published 2020).
